Numbered stars: 1 amine (or outer) side, 2 acyl side, 3 side chain; on linkers, the order of the positions; unused ones are H or OH. Square brackets hold non-standard residues; d marks the D form. Side chains are listed from the residue outwards. Ends that are not written are not given here. * marks the point of attachment. C20 diacid = O=C(O)CCCCCCCCCCCCCCCCCCC(=O)*; γGlu = O=C(O)[C@H](CCC(=O)[*:2])N[*:1]; Trx = NC[C@H]1CC[C@H](C(=O)O)CC1; AEEA = NCCOCCOCC(=O)O; Aib = CC(C)(N)C(=O)O
B1: N{Alpha}([Aib8,Glu22,Arg26,Arg34]-GLP-1-(7-37)-peptidyl)-N{Epsilon}[2-[2-[2-[[2-[2-[2-[[(4S)-4-carboxy-4-[[4-[(19-carboxynonadecanoylamino)methyl]cyclohexanecar … (peptide)
peptide: H[Aib]EGTFTSDVSSYLEEQAAREFIAWLVRGRGK([AEEA-AEEA-γGlu-Trx-C20 diacid])GGSK([AEEA-AEEA-γGlu-Trx-C20 diacid])
notes: Double-acylated, C-terminally extended GLP-1 analogue made by SPPS
B2: N{Epsilon-27}-[2-[2-[2-[[2-[2-[2-[[(4S)-4-carboxy-4-[[4-[(19-carboxynonadecanoylamino)methyl]cyclohexanecarbonyl]amino]butanoyl]amino]ethoxy]ethoxy]acetyl]amino … (peptide)
peptide: H[Aib]EGTFTSDVSSYLEEQAARK([AEEA-AEEA-γGlu-Trx-C20 diacid])FIAWLVRGRGGGGSK([AEEA-AEEA-γGlu-Trx-C20 diacid])
notes: as for B1
B3: N{Epsilon-36}-[2-[2-[2-[[2-[2-[2-[[(4S)-4-carboxy-4-[[4-[(19-carboxynonadecanoylamino)methyl]cyclohexanecarbonyl]amino]butanoyl]amino]ethoxy]ethoxy]acetyl]amino … (peptide)
peptide: H[Aib]EGTFTSDVSSYLEEQAAREFIAWLVRGK([AEEA-AEEA-γGlu-Trx-C20 diacid])GEGPAK([AEEA-AEEA-γGlu-Trx-C20 diacid])
notes: Double-acylated, C-terminally extended GLP-1 analogue made by SPPS; also called 16
B4: N{Epsilon-36}-[2-[2-[2-[[2-[2-[2-[[(4S)-4-carboxy-4-[[4-[(19-carboxynonadecanoylamino)methyl]cyclohexanecarbonyl]amino]butanoyl]amino]ethoxy]ethoxy]acetyl]amino … (peptide)
peptide: H[Aib]EGTFTSDVSSYLEEQAAREFIAWLVRGK([AEEA-AEEA-γGlu-Trx-C20 diacid])GGGGSK([AEEA-AEEA-γGlu-Trx-C20 diacid])
notes: as for B1
B5: N{Alpha}([Aib8,Glu22,Arg26,Arg34]-GLP-1-(7-37)-peptidyl)-N{Epsilon}[2-[2-[2-[[2-[2-[2-[[(4S)-4-carboxy-4-[[4-[(19-carboxynonadecanoylamino)methyl]cyclohexanecar … (peptide)
peptide: H[Aib]EGTFTSDVSSYLEEQAAREFIAWLVRGRGK([AEEA-AEEA-γGlu-Trx-C20 diacid])SPEK([AEEA-AEEA-γGlu-Trx-C20 diacid])
notes: Double-acylated, C-terminally extended GLP-1 analogue made by SPPS; also called 11
B6: N{Epsilon-23}-[2-[2-[2-[[2-[2-[2-[[(4S)-4-carboxy-4-[[4-[(19-carboxynonadecanoylamino)methyl]cyclohexanecarbonyl]amino]butanoyl]amino]ethoxy]ethoxy]acetyl]amino … (peptide)
peptide: H[Aib]EGTFTSDVSSYLEEK([AEEA-AEEA-γGlu-Trx-C20 diacid])AAREFIAWLVRGRGGGGSK([AEEA-AEEA-γGlu-Trx-C20 diacid])
notes: as for B1
B7: N{Alpha}([Aib8,Glu22,Arg26,Arg34]-GLP-1-(7-37)-peptidyl)-N{Epsilon}[2-[2-[2-[[2-[2-[2-[[(4S)-4-carboxy-4-[[4-[(19-carboxynonadecanoylamino)methyl]cyclohexanecar … (peptide)
peptide: H[Aib]EGTFTSDVSSYLEEQAAREFIAWLVRGRGK([AEEA-AEEA-γGlu-Trx-C20 diacid])PEGK([AEEA-AEEA-γGlu-Trx-C20 diacid])
notes: Double-acylated, C-terminally extended GLP-1 analogue made by SPPS; also called 12
B8: N{Alpha}([Aib8,Glu22,Arg26,Arg34]-GLP-1-(7-37)-peptidyl)-N{Epsilon}[2-[2-[2-[[2-[2-[2-[[(4S)-4-carboxy-4-[[4-[(19-carboxynonadecanoylamino)methyl]cyclohexanecar … (peptide)
peptide: H[Aib]EGTFTSDVSSYLEEQAAREFIAWLVRGRGK([AEEA-AEEA-γGlu-Trx-C20 diacid])SAEK([AEEA-AEEA-γGlu-Trx-C20 diacid])
notes: Double-acylated, C-terminally extended GLP-1 analogue made by SPPS; also called 13
B9: N{Epsilon-31}-[2-[2-[2-[[2-[2-[2-[[(4S)-4-carboxy-4-[[4-[(19-carboxynonadecanoylamino)methyl]cyclohexanecarbonyl]amino]butanoyl]amino]ethoxy]ethoxy]acetyl]amino … (peptide)
peptide: H[Aib]EGTFTSDVSSYLEEQAAREFIAK([AEEA-AEEA-γGlu-Trx-C20 diacid])LVRGRGGGGSK([AEEA-AEEA-γGlu-Trx-C20 diacid])
notes: as for B1
B10: N{Epsilon-27}-[(2S)-2-amino-6-[[(2S)-2-amino-6-[[(4S)-4-carboxy-4-(19-carboxynonadecanoylamino)butanoyl]amino]hexanoyl]amino]hexanoyl]-[Aib8,Glu22,Arg26,Lys27,A … (peptide)
peptide: H[Aib]EGTFTSDVSSYLEEQAARKFIAWLVRGRGGGGSK
modifications: not fully specified (residues 21, 36)
notes: Double-acylated, C-terminally extended GLP-1 analogue made by SPPS; The printed name has a typographic slip ('R2S)' for '[(2S)')
B11: N{Epsilon-18}-[2-[2-[2-[[2-[2-[2-[[(4S)-4-carboxy-4-[[4-[(19-carboxynonadecanoylamino)methyl]cyclohexanecarbonyl]amino]butanoyl]amino]ethoxy]ethoxy]acetyl]amino … (peptide)
peptide: H[Aib]EGTFTSDVSK([AEEA-AEEA-γGlu-Trx-C20 diacid])YLEEQAAREFIAWLVRGRGGGGSK([AEEA-AEEA-γGlu-Trx-C20 diacid])
notes: as for B1

Legend:
human GLP-1 receptor [1] = biological target: T1, human GLP-1 receptor (human, UniProt P43220 24-463); test: cell-based or functional assay
human GLP-1 receptor [2] = biological target: T1, human GLP-1 receptor; test: competitive binding (SPA): displacement of 125I-GLP-1(7-36)NH2 from BHK cell membranes with human GLP-1 receptor; high HSA (2.0% final)
Method: (§1) For the receptor binding assay in the presence of low HSA (0.005%) 50 μl of the assay buffer was added to each well of an assay plate. […] For the receptor binding assay in the presence of high HSA (2%) 50 μl of the 8% albumin stock was added to each well of an assay plate. […] Cell membrane aliquots were thawed and diluted to their working concentration. Fifty μl were added to each well in the assay plate. […] WGA SPA beads were suspended in assay buffer at 20 mg/ml. The suspension was diluted to 10 mg/ml in assay buffer just prior to addition to the assay plate. Fifty μl were added to each well in the assay plate. […] A 25 μl aliquot was reserved for measuring total counts/well. […] The assay plate was incubated for 2 h at 30° C. […] The assay plate was centrifuged for 10 min. […] The assay plate was read in a Packard TopCount NXT instrument.

human GLP-1 receptor [3] = biological target: T1, human GLP-1 receptor; test: competitive binding (SPA): displacement of 125I-GLP-1(7-36)NH2 from BHK cell membranes with human GLP-1 receptor; low HSA (max. 0.001% final)
Method: as §1

Binder	EC50 (pM), in vitro potency, CRE luciferase reporter gene assay in BHK cells expressing the human GLP-1 receptor (human GLP-1 receptor [1])	IC50 (human GLP-1 receptor [2])	IC50 (human GLP-1 receptor [3])
B1	43 pM	185 nM	1.2 nM
B2	55 pM	275 nM	0.75 nM
B3	25 pM	602 nM	1.4 nM
B4	61 pM	101 nM	1.1 nM
B5	27 pM	116 nM	1.5 nM
B6	74 pM	113 nM	0.85 nM
B7	24 pM	212 nM	1.4 nM
B8	24 pM	160 nM	1.4 nM
B9	36 pM	≥ 1000 nM	1.4 nM
B10	260 pM	383 nM	0.43 nM
B11	93 pM	≥ 1000 nM	1 nM

Source: patent publication US20150011462A1 (Novo Nordisk, published 2015)
